Results as given in publication PMC9507964, “Structure of CRL7^FBXW8 reveals coupling with CUL1–RBX1/ROC1 for multi-cullin-RING E3-catalyzed ubiquitin ligation” (Nature Structural & Molecular Biology, 2022).
One block for each binder: values may come before it.

What was measured:
[1] = target: T1, CUL1–RBX1 (full-length CUL1) (human, UniProt Q13616 1-776; P62877 5-108); test: SEC; comigration; proteins mixed at equimolar 1.5 μM for at least 10 min on ice; Superose 6 5/150GL; 50 mM Tris pH 7.5, 150 mM NaCl, 1 mM DTT; fractions on Coomassie-stained SDS–PAGE; settings: both partners purified
T1 construct: CUL1, human, full length; RBX1, human, residue 5 to C terminus; Unneddylated form used in the SEC experiments; also called full-length CUL1–RBX1; not shown: GST, N-terminal, cleaved

FBXW8 = target: T2, FBXW8 (human, UniProt Q8N3Y1 1-598); test: cryo-EM structure; purified CRL7^FBXW8 and CUL1 N-terminal region mixed 15 min before plunging, on ice; Glacios 200 kV; settings: both partners purified
T2 construct: FBXW8, human, full length; source: HEK293S, co-expressed (BacMam), purified within CRL7^FBXW8; not shown: GFP, N-terminal, cleaved
T2 sequence (looked up): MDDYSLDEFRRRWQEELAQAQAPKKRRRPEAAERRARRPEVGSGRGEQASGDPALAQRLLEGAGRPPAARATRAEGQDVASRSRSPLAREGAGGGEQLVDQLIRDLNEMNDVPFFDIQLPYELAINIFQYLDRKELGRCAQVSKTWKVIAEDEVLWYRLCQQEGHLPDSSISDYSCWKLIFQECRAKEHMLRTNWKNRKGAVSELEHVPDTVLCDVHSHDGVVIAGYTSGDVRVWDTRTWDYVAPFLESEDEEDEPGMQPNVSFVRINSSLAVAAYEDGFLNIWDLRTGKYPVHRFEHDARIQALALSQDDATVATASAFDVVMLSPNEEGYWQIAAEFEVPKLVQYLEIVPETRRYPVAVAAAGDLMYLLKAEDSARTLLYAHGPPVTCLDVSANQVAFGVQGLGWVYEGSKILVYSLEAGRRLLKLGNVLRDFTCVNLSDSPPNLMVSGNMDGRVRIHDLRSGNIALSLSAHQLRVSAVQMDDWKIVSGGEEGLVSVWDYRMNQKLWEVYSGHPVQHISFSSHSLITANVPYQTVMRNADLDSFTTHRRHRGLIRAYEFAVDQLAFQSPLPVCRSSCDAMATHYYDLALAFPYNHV

binding result [1]: binds
B1: SKP1^ΔΔ–β-TRCP1 (monomeric form) complex (complex, human)
chain 1: MLQRDFITALPARGLDHIAENILSYLDAKSLCAAELVCKEWYRVTSDGMLWKKLIERMVRTDSLWRGLAERRGWGQYLFKNKPPDGNAPPNSFYRALYPKIIQDIETIESNWRCGRHSLQRIHCRSETSKGVYCLQYDDQKIVSGLRDNTIKIWDKNTLECKRILTGHTGSVLCLQYDERVIITGSSDSTVRVWDVNTGEMLNTLIHHCEAVLHLRFNNGMMVTCSKDRSIAVWDMASPTDITLRRVLVGHRAAVNVVDFDDKYIVSASGDRTIKVWNTSTCEFVRTLNGHKRGIACLQYRDRLVVSGSSDNTIRLWDIECGACLRVLEGHEELVRCIRFDNKRIVSGAYDGKIKVWDLVAALDPRAPAGTLCLRTLVEHSGRVFRLQFDEFQIVSSSHDDTILIWDFLNDPAAQAEPPRSPSRTYTYISR
chain 2: MPSIKLQSSDGEIFEVDVEIAKQSVTIKTMLEDLGMDPVPLPNVNAAILKKVIQWCTHHKDDPPDDIPVWDQEFLKVDQGTLFELILAANYLDIKGLLDVTCKTVANMIKGKTPEEIRKTFNIKNDFTEEEEAQVRKENQWCEEK
notes: β-TRCP1, human, monomeric form, from residue 175 to C terminus; also called SKP1-β-TRCP1; SKP-β-TRCP1; not shown: His-MBP, N-terminal, cleaved

binding result (FBXW8): binds
B2: CUL1 N-terminal region (residues 1–410) (domain or fragment)
chain: not shown
notes: CUL1, human, residues 1 to 410 encompassing the CR1, CR2 and CR3 domains; Expressed as a GST-thrombin or GST-TEV fusion; also called CUL1^NTD; N-terminal region of CUL1 (CR1, CR2 and CR3 domains)
